# From US20050053994
# B1: human LS-DNase (protein)
# chain: MRICSFNVRSFGESKQEDKNAMDVIVKVIKRCDIILVMEIKDSNNRICPILMEKLNRNSRRGITYNYVISSRLGRNTYKEQYAFLYKEKLVSVKRSYHYHDYQDGDADVFSREPFVVWFQSPHTAVKDFVIIPLHTTPETSVKEIDELVEVYTDVKHRWKAENFIFMGDFNAGCSYVPKKAWKNIRLRTDPRFVWLIGDQEDTTVKKSTNCAYDRIVLRGQEIVSSVVPKSNSVFDFQKAYKLTEEEALDVSDHFPVEFKLQSSRAFTNSKKSVTLRKKTKSKRS
# B2: human DNase I (protein)
# chain: LKIAAFNIQTFGETKMSNATLVSYIVQILSRYDIALVQEVRDSHLTAVGKLLDNLNQDAPDTYHYVVSEPLGRNSYKERYLFVYRPDQVSAVDSYYYDDGCEPCGNDTFNREPAIVRFFSRFTEVREFAIVPLHAAPGDAVAEIDALYDVYLDVQEKWGLEDVMLMGDFNAGCSYVRPSQWSSIRLWTSPTFQWLIPDSADTTATPTHCAYDRIVVAGMLLRGAVVPDSALPFNFQAAYGLSDQLAQAISDHYPVEVMLK
# Target: actin
row,Protein,"DNA-hydrolytic activity in plasmid nicking assay (supercoiled pBR322, agarose gel)"
1,B1,the DNA-hydrolytic activity of LS-DNase was not inhibited by concentrations of actin that fully inhibited human DNase I
2,B2,the DNA-hydrolytic activity of human DNase I was inhibited by added actin in a concentration-dependent manner
